In patent US7736875B2, “Dipeptidyl peptidase I crystal structure and its uses” (Prozymex A/S, priority 2000, dated 2010):

How the values were obtained:
[1] = DPPI transferase assay; format: biochemical, rat; settings: FIG. 8
From the text: The rate of transfer of dipeptides from a donor peptide to the nucleophilic amino terminus of an acceptor peptide, the ratio of dipeptide transfer to hydrolysis and the stability of elongated peptide product to hydrolytic turnover are estimated in a transferase assay.
In these reactions, X and Y are any amino acid residue with the exception of prolyl. X is preferably Phe and Y is preferably Arg or Lys and pNA is a para-nitroanilide group. H and COOH indicate unblocked peptide amino and carboxy termini, respectively. In the transferase reaction, DPPI catalyses the transpeptidation of dipeptide H-Pro-X from the peptide amide to the free amino group of residue Y. The dipeptide can not be transferred to a second H-Pro-X-NH2 molecule because of the N-terminal Pro residue. The progress of the transpeptidation reaction is monitored in the trypsin cleavage reaction, in which produced H-Pro-X-Y-pNA tripeptide is hydrolysed following the addition of trypsin endoprotease to an aliquot of reaction mixture. Trypsin hydrolyses H-Pro-X-Arg/Lys-pNA much more rapidly than H-Arg/Lys-pNA (low aminopeptidase activity) making it possible to determine the amount of tripeptide formed. The transferase reaction is essentially stopped upon addition of trypsin because the reactants are diluted 10-fold (resulting in an approximately 100-fold lower rate) and because DPPI is unstable at pH 8.3.
The concentration of tripeptide obtained also depends on the rates of hydrolysis of the initial substrate (Hydrolysis reaction 1) and of the tripeptide (Hydrolysis reaction 2):
The hydrolysed peptides […] and […] are not DPPI substrates and can no longer be used in peptide synthesis. Accordingly, the peptidase activity of DPPI degrades both the trypsin substrate (before trypsin is added to the reaction mixture) and one of its precursors.
20 μl of DPPI (1-50 U/ml) in 20 mM Tris-HCl or sodium phosphate-NaOH buffer pH 7.5 is mixed with 20 μl 20 mM dithiothreitol (DTT) and allowed to incubate for 30 min at 5-37° C., preferably 12° C. Meanwhile, 10 μl 400 mM H-Pro-X-NH2 and 10 μl 500 mM H-Y-pNA (both in 100% dimethyl formamide) and 140 μl […] Tris-HCl or sodium phosphate-NaOH buffer, pH 7.5 are mixed and incubated at the same temperature. The transferase and hydrolysis reactions are initiated by the addition of reduced and activated DPPI to the peptide mixture (same temperature). All reaction mixtures should include a minimum of 10 mM chloride.
The progress of the reaction is followed by mixing 10 μl aliquots with 1 μM trypsin in 0.1 M Tris-HCl buffer pH 8.3 and at 5-37° C., preferably 20-37° C. A yellow colour quickly appears. After 10 min, 1000 μl of water are added and the absorbance at 405 nm is measured against an appropriate blank.

[2] = test system: one or more cysteine peptidases present in the eluates of the Butyl SEPHAROSE FF column; experiment: Proteolytic processing of immature DPPI peptides in Butyl Sepharose FF eluate (SDS-PAGE); format: biochemical; settings: eluate incubated at pH 4.5, 4° C.
Protocol: DPPI eluted from the hydrofobic interaction column was in general only partially processed to the mature, active form. To complete the processing, the eluate was incubated at pH 4.5 and 4° C. for 18-40 hours to convert the immature peptides to the peptides of mature rrDPPI or rhDPPI. […] Furthermore, the rate of processing was dependent on the pH of the buffer during incubation. No conversion of the immature peptides could be observed at pH 7.0 as determined by SDS-PAGE analysis but processing was observed when incubation was performed at pH 6.5 or below. The processing proceeded at highest rate at about pH 4.5. The fully processed rhDPPI and rrDPPI were finally purified and concentrated on Q-SEPHAROSE™ FF as described above. Recombinant hDPPI was quantified using an extinction coefficient at 280 nm of 2.0.

## D274Q: rat DPPI active site mutant Asp274 to Gln274
[1]; versus wild type rat DPPI
  influence of mutation on rat DPPI transferase activity: no favourable influence

## CC(C)C[C@H](NC(=O)[C@H]1O[C@@H]1C(=O)O)C(=O)NCCCCN=C(N)N [E-64, reference compound]
[2]; addition of 1 μM E-64
  proteolytic processing of the immature peptides to mature rrDPPI or rhDPPI: completely blocked

## N226S229:Q226N229: rat DPPI active site double mutant Asn226:Ser229 to Gln226:Asn229
[1]
  stability of the produced tripeptide product in presence of the variant: much more stable
  transferase activity versus hydrolytic activity (maximum level of tripeptide): favoured over the hydrolytic activity
[1]; compared with wild type and D274Q
  rate of generation of the tripeptide substrate: nearly as fast as the other two variants

B1: chicken cystatin: non-covalent protein inhibitor of cysteine peptidases of the cystatin family (protein, UniProt P01038 24-139, looked up)
Cystatin: SEDRSRLLGAPVPVDENDEGLQRALQFAMAEYNRASNDKYSSRVVRVISAKRQLVSGIKYILQVEIGRTTCPKSSGDLQSCEFHDEPEMAKYTTCTFVVYSIPWLNQIKLLESKCQ
[2]; addition of 0.1 μM chicken cystatin
  proteolytic processing of the immature peptides to mature rrDPPI or rhDPPI: completely blocked
